{"source": "patent US20150057331A1", "key": {"CD4 (human)": {"biological_target": "CD4 (human) (UniProt P01730)", "experiment": "cell-based or functional assay"}, "CCR5 (human)": {"biological_target": "CCR5 (human) (UniProt P51681)", "experiment": "cell-based or functional assay"}}}
{"substance": "Monomeric gp120BaL (R5-tropic)", "values": [{"measurement": "ATP release from primary human macrophages (luminescence assay), peak fold change against vehicle", "setting": "CD4 (human)", "result": 1.8, "unit": "fold"}, {"measurement": "ATP release from primary human macrophages (luminescence assay), peak fold change against vehicle", "setting": "CCR5 (human)", "result": 1.8, "unit": "fold"}]}
{"substance": "Monomeric gp120SF162 (R5-tropic)", "values": [{"measurement": "ATP release from primary human macrophages (luminescence assay), peak fold change against vehicle", "setting": "CD4 (human)", "result": 1.8, "unit": "fold"}, {"measurement": "ATP release from primary human macrophages (luminescence assay), peak fold change against vehicle", "setting": "CCR5 (human)", "result": 1.8, "unit": "fold"}]}
